Data: the supplement of paper PMC10567573

Assay: protein stability index of a GFP-peptide fusion (GPS, HEK-293T) (PSI 1-6); higher = more stable
Conditions: c terminus: native
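Note: lentivirally expressed fusion library, cells FACS-sorted into six equal-sized GFP/DsRed ratio bins, PSI computed from sequencing read fractions per bin weighted by bin number.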

**Q.** With CQPISFSGFGAEDDDLGGLGLGPL [POLD2 addL] as the protein, how does the protein stability index (parent: NP_006221.1) read?
**A.** Its protein stability index is 2.66.

**Q.** With LPALFTDLYSQEITAEEAREALPL [SNF8 addL] as the protein, how does the protein stability index (parent: NP_009172.2) read?
**A.** Its protein stability index is 3.71.

**Q.** For EQRNSRWNTVLRAVKAKTHHLEPL [TRPA1 addL], which protein stability index (parent: NP_015628.1) is on record?
**A.** The protein stability index was 4.2.

**Q.** With DGWIRVSSDNVADLHEKYSGSTPL [PSMB5 addL] as the protein, how does the protein stability index (parent: NP_002788.1) read?
**A.** The protein stability index was 3.47.
